The values that follow come from publication PMC6908968 (Cell, 2019).

Test [1] concerns the target T1, thermolysin-cleaved EBOV GP on Jurkat-GP cells (cleaved GP) (Zaire ebolavirus, Makona (GP1 core …, strain)).
T1 chain 1: not shown
T1 chain 2: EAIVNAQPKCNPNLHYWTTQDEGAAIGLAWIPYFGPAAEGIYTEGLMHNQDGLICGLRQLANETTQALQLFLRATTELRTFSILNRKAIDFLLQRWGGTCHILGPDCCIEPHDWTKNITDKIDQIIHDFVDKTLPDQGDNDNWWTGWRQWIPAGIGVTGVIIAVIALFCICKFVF

The target in test [2] is EBOV GP ectodomain residues 1-636 (GPec) (Zaire ebolavirus, strain  …, UniProt Q05320).

B1: 9.1.c1533 (antibody, V domains shown)
VH: QVQLQESGPGLVKPSGTLSLTCTVSGGSISSNNWWSWVRQSPGKGLEWIGEIYHSGSTNYNPSLKSRVTISVDKSKNQFSLKVSSVTAADTAVYYCARGDQLIYYFDYWGQGTLVTVSS
VL: QSALTQPASVSGSPGQSITISCTGSSSDVGVYDFVSWYQQHPGKAPKLMIYEVSNRPSGVSNRFSGSKSGNTASLTISGLQAEDEANYYCSSYTSSITNVVFGGGTKLTVL
Consider B1, for which the binding result in test [1] and in test [2] was “binds” in each case.

B2: 5.6.c4471 (antibody, V domains shown)
VH: QIQLVQSGTEVKKPGASVKVSCTASGYTFNNYAITWVRQAPGQGLEWMGWINPYNGDTTYAQKLQGRITMTTGRSTSTAYMDLRSLTSGDTAVYYCARGGAVTDLYFSYVMDVWGQGTTVSVSS
VL: DIQMTQSPSSVSASVGDRVTITCRASQDVSYWLAWFQQKPGKAPELLIHAASSLQSGVPSRFSGSGSGTDFTLTINSLQPEDFATYYCQQSHSFPWTFGQGTKVEIK
Turning to B2, the binding result in test [1] and in test [2] was “binds” in each case.

B3: 5.6.c4516 (antibody, V domains shown)
VH: EVHLVESGGGLVQRGGSLRLSCVASKFSFSFYSMGWVRQPPGKGLEWVSFISISGTTIYYEDSVKGRFTISRDDAKNSLYLQMNSLRDEDTAVYYCARIPQAAFHFDYWGQGTLVAVSS
VL: QSALTQPASVSGSPGQSITISCTGSSSDVGSYNLVSWYQQHPGKAPKLMIYEGSSRPSGVSNRFSGSKSGNTASLTISGLQAEDEADYYCCAYAGTRTWLFGGGTKVTVL
For the molecule B3, the binding result in test [1] and in test [2] was “binds” throughout.

B4: 9.1.c1482 (antibody, V domains shown)
VH: QLQLQESGPGLVKPSETLSLTCTVSGGSITSGSNYWGWIRQSPGKGLEWIGSIYYSGSTYYNPSLKSRVTTSVDTSKNQFSLRMSSVTAADTALYYCVRHLSTELLFGCFDPWGQGTLVTVSS
VL: DIQMTQSPSTLSASVGDRVTITCRASQSITGWLAWYQQKPGKAPKLLIYDASSLESGVPSRFSGSGSGTEFTLTISSLQPDDFATYYCLQYHSYSSFGQGTKLEIK
Consider B4, for which the binding result in test [1] and in test [2] was “binds” in each case.

B5: 5.6.c4515 (antibody, V domains shown)
VH: QVQLVESGGDVVQPGRSLRLSCAASGFIFSTYGMHWVRQTPGKGLEWVAVLYYDGRNGYYADSVKGRFTISRDNSKNTLYLQMNSLRAEDTAVYYCARDGCSSTDCLLYYYAMDVWGQGTTVTVSS
VL: QSALTQPPSASGSPGQSVTISCTGTSSDVGAYNYVSWYQQHPGKGPKLMIYEVNQRPSGVPGRFSGSKSGNTASLTVSGLQTEDEADYFCSSYAGSNTVVFGGGTKLTVL
Take B5: the binding result in test [1] and in test [2] was “binds” each time.

B6: 9.1.c1500 (antibody, V domains shown)
VH: QLQLQESGPGLVKPSETLSLTCTVSGGSISSSSYFWGWIRQPPGKGLELIGIIYYTGNTNYNPSLKSRVTISVDTSKNQFSLKLSSVTAADTAVYYCARSLEAHLLYYYAMDVWGQGTTVTVFS
VL: QSALTQPRSVSGSPGQSVTISCTGTSSDVGGYNYVSWYQQHPGKAPKLMIYDVSQRPSGVPDRFSGSKSGNTASLTISGLQAADEADYYCCSYAGSSWVFGGGTKLTVL
In the case of B6, the binding result in test [1] and in test [2] was “binds” throughout.

B7: 9.1.c1617 (antibody, V domains shown)
VH: QVQFVESGGGLVKPGGSLRLSCTTSGFTFSDYYMSWIRQAPGKGLEWVSYISRSGNIIYYPDSVKGRFTISRDNAKNSLYLQMNSLRVEDTAVYYCAGGVQRGYNYYYYGMYVWGQGITVTVSS
VL: DIVMTQSPLSLPVTPGEPASISCRSSQSLLHSNGYNYLDWYLQRPGQSPQLLIYLGSNRASGVPDRFSGSGSGTDFTLKISRVEAEDFGFYYCMQALQTPYTFGQGTKLEIR
Turning to B7, the binding result in test [1] and in test [2] was “binds” each time.
